Reference: article doi:10.1101/2020.07.23.218024
Where two headings read alike, the source gives them in different places.

Key:
Assay in all cases: ELISA
[1] = biological target: microtubules / purified porcine brain tubulin (porcine)
[2] = biological target: microtubules / purified porcine brain tubulin (porcine); remark: listed apart in the source
GST-PEX14-NTD (human) = GST-PEX14-NTD (human) (UniProt O75381)
GST-PEX14-NTD (human), sequence (O75381 1-80): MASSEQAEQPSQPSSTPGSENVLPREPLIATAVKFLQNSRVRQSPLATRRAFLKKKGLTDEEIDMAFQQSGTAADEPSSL

## GST-PEX14-NTD (from UniProt O75381 1-80) (domain or fragment)
[1]
  Kd: 0.7 to 2.3 nM
[2]
  Kd: 2.1 nM

## His-PEX14-NTD (from UniProt O75381 1-80) (domain or fragment)
[2]
  fold weaker affinity than GST-PEX14-NTD/MT: > 100 fold

## monomeric His-tagged Kif5B kinesin motor domain (domain or fragment)
[2]
  Kd: 56.6 nM

## full-length His6-TEV-PEX5S (from UniProt P50542-2 1-602) (natural protein)
GST-PEX14-NTD (human)
  IC50: 1200 nM
